For the experiment, the target named is T1, IL-7R/Fc fusion protein.
T1 construct: Loaded on the SPR chip; also called IL-7 receptor
The experiment is described as follows: SPR, IL-7R/Fc loaded chip, Scrubber2. On the procedure:
Fc fusion protein was determined by surface plasmon resonance (SPR). Association (Ka), Dissociation (Kd) and total binding constant (KD) were calculated using the Scrubber2 program (BioLogic Software).

T1 sequence (P16871 whole entry, the tested form may be a part): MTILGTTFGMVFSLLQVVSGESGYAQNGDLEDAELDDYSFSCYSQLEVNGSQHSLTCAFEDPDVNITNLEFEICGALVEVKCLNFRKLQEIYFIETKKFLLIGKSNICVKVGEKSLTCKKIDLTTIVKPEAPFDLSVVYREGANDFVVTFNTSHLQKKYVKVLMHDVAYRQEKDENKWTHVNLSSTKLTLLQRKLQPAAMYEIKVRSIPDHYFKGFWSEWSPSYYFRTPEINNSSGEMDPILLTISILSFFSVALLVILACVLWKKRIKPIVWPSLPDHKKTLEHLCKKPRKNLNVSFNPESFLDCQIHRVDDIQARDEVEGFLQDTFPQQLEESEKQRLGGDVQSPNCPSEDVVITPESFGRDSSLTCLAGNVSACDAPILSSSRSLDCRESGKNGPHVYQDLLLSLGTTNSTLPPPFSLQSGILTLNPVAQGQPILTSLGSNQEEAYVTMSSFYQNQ

B1: IL-7AT, attenuated IL-7 with Thr97 substituted by Val (ligand)
chain: DCDIEGKDGKQYESVLMVSIDQLLDSMKEIGSNCLNNEFNFFKRHICDANKEGMFLFRAARKLRQFLKMNSVGDFDLHLLKVSEGTTILLNCTGQVKGRKPAALGEAQPTKSLEENKSLKEQKKLNDLCFLKRLLQEIKTCWNKILMGTKEH
notes: also called IL-7 ligand; HMM-IL-7AT
Broadly, the Kd is the free concentration of one partner at which half of the binding sites on the other are occupied at equilibrium, for simple one-to-one binding. Read a low Kd as higher affinity. B1 gave a Kd of 100 nM. That is a sub-micromolar value.

Source of the values: patent US9266937 (UNIVERSITY OF CENTRAL FLORIDA RESEARCH FOUNDATION, dated 2016).
